# According to PMC7041945, “Misfolded proteins bind and activate death receptor 5 to trigger apoptosis during unresolved endoplasmic reticulum stress” (eLife, 2020):
# B1: pRK CHOP (protein, UniProt P35638 1-169, looked up)
# DNA damage-inducible …: MAAESLPFSFGTLSSWELEAWYEDLQEVLSSDENGGTYVSPPGNEEEESKIFTTLDPASLAWLTEEEPEPAEVTSTSQSPHSPDSSQSSLAQEEEEEDQGRTRKRKQSGHSPARAGKQRMKEKEQENERKVAQLAEENERLKQEIERLTREVEATRRALIDRMVNLHQA
# modifications: expression plasmid
# Test system: CHOP, BiP, and DR5 mRNA in HCT116 cells
# Experiment: qPCR of UPR target transcripts (CHOP, BiP, DR5)
# Format: cell-based, Homo sapiens
# Conditions: for avg. fold induction relative to empty traffo, BiP / avg. fold induction relative to empty traffo, CHOP / avg. fold induction relative to empty traffo, DR5 total: norm to GAPDH; for 2^-(deltaCq) BiP / 2^-(deltaCq) CHOP / 2^-(deltaCq) DR5 total: vs GAPDH
# Method: Cells were grown in 6-well plates and harvested with 0.5 ml of TRIzol reagent (Life Technologies) per manufacturer’s protocol to extract RNA. For cDNA synthesis, 500 ng of total RNA was reverse transcribed with 2 μl of the SuperScript VILO master mix (Life Technologies # 11755050) in a total reaction volume of 10 μl following the manufacturer’s protocol for reaction temperature and duration. The reverse transcription product was diluted to 200 μl with 10 mM Tris-HCl pH 8.2 and used at 1:100 dilution for subsequent RT-PCR reactions.
# PCR samples were prepared as described by manufacturer’s protocols from iQ SYBR Green Supermix (BioRad #17088800).
# For each experiment, qRT-PCR reactions were set up in triplicate and run using a CFX96 Real Time System (Bio-Rad). Quantitation cycles were determined with CFX Manager 3.0 software (Bio-Rad) and then normalized to GAPDH as an internal control.
# [1] = HCT116, pRK CHOP 31 ng, Sheet1, replicate 1
molecule,measurement,setting,value
B1,"avg. fold induction relative to empty traffo, BiP","HCT116, 31 ng",0.2997 fold
same,"avg. fold induction relative to empty traffo, CHOP","HCT116, 31 ng",18.7911 fold
same,"fold induction relative to empty traffo, BiP","HCT116, 31 ng, replicate 1",0.28 fold
same,"fold induction relative to empty traffo, CHOP","HCT116, 31 ng, replicate 1",16.3851 fold
same,"fold induction relative to empty traffo, DR5 total","HCT116, 31 ng, replicate 1",0.9029 fold
same,"fold induction relative to empty traffo, BiP","HCT116, 31 ng, replicate 2",0.3243 fold
same,"fold induction relative to empty traffo, CHOP","HCT116, 31 ng, replicate 2",19.1521 fold
same,"fold induction relative to empty traffo, DR5 total","HCT116, 31 ng, replicate 2",0.9212 fold
same,"fold induction relative to empty traffo, BiP","HCT116, 31 ng, replicate 3",0.2949 fold
same,"fold induction relative to empty traffo, CHOP","HCT116, 31 ng, replicate 3",20.8362 fold
same,"fold induction relative to empty traffo, DR5 total","HCT116, 31 ng, replicate 3",2.023 fold
same,2^-(deltaCq) BiP,"HCT116, 31 ng, replicate 1",0.02437
same,2^-(deltaCq) CHOP,"HCT116, 31 ng, replicate 1",0.1729
same,2^-(deltaCq) DR5 total,"HCT116, 31 ng, replicate 1",0.01464
same,2^-(deltaCq) BiP,"HCT116, 31 ng, replicate 2",0.02822
same,2^-(deltaCq) CHOP,"HCT116, 31 ng, replicate 2",0.2021
same,2^-(deltaCq) DR5 total,"HCT116, 31 ng, replicate 2",0.01494
same,2^-(deltaCq) BiP,"HCT116, 31 ng, replicate 3",0.02567
same,2^-(deltaCq) CHOP,"HCT116, 31 ng, replicate 3",0.2199
same,2^-(deltaCq) DR5 total,"HCT116, 31 ng, replicate 3",0.0328
same,"avg. fold induction relative to empty traffo, BiP","HCT116, 62 ng",0.334 fold
same,"avg. fold induction relative to empty traffo, CHOP","HCT116, 62 ng",50.7204 fold
same,"avg. fold induction relative to empty traffo, DR5 total","HCT116, 62 ng",0.954 fold
same,"fold induction relative to empty traffo, BiP","HCT116, 62 ng, replicate 1",0.3561 fold
same,"fold induction relative to empty traffo, CHOP","HCT116, 62 ng, replicate 1",46.9347 fold
same,"fold induction relative to empty traffo, DR5 total","HCT116, 62 ng, replicate 1",0.9555 fold
same,"fold induction relative to empty traffo, BiP","HCT116, 62 ng, replicate 2",0.3335 fold
same,"fold induction relative to empty traffo, CHOP","HCT116, 62 ng, replicate 2",49.2833 fold
same,"fold induction relative to empty traffo, DR5 total","HCT116, 62 ng, replicate 2",1.032 fold
same,"fold induction relative to empty traffo, BiP","HCT116, 62 ng, replicate 3",0.3124 fold
same,"fold induction relative to empty traffo, CHOP","HCT116, 62 ng, replicate 3",55.9433 fold
same,"fold induction relative to empty traffo, DR5 total","HCT116, 62 ng, replicate 3",0.8745 fold
same,2^-(deltaCq) BiP,"HCT116, 62 ng, replicate 1",0.031
same,2^-(deltaCq) CHOP,"HCT116, 62 ng, replicate 1",0.4954
same,2^-(deltaCq) DR5 total,"HCT116, 62 ng, replicate 1",0.01549
same,2^-(deltaCq) BiP,"HCT116, 62 ng, replicate 2",0.02903
same,2^-(deltaCq) CHOP,"HCT116, 62 ng, replicate 2",0.5202
same,2^-(deltaCq) DR5 total,"HCT116, 62 ng, replicate 2",0.01673
same,2^-(deltaCq) BiP,"HCT116, 62 ng, replicate 3",0.02719
same,2^-(deltaCq) CHOP,"HCT116, 62 ng, replicate 3",0.5905
same,2^-(deltaCq) DR5 total,"HCT116, 62 ng, replicate 3",0.01418
same,"avg. fold induction relative to empty traffo, BiP","HCT116, 125 ng",0.5304 fold
same,"avg. fold induction relative to empty traffo, CHOP","HCT116, 125 ng",220.701 fold
same,"avg. fold induction relative to empty traffo, DR5 total","HCT116, 125 ng",1.17 fold
same,"fold induction relative to empty traffo, BiP","HCT116, 125 ng, replicate 1",0.6342 fold
same,"fold induction relative to empty traffo, CHOP","HCT116, 125 ng, replicate 1",230.561 fold
same,"fold induction relative to empty traffo, DR5 total","HCT116, 125 ng, replicate 1",1.242 fold
same,"fold induction relative to empty traffo, BiP","HCT116, 125 ng, replicate 2",0.5274 fold
same,"fold induction relative to empty traffo, CHOP","HCT116, 125 ng, replicate 2",173.762 fold
same,"fold induction relative to empty traffo, DR5 total","HCT116, 125 ng, replicate 2",1.206 fold
same,"fold induction relative to empty traffo, BiP","HCT116, 125 ng, replicate 3",0.4295 fold
same,"fold induction relative to empty traffo, CHOP","HCT116, 125 ng, replicate 3",257.78 fold
same,"fold induction relative to empty traffo, DR5 total","HCT116, 125 ng, replicate 3",1.064 fold
same,2^-(deltaCq) BiP,"HCT116, 125 ng, replicate 1",0.0552
same,2^-(deltaCq) CHOP,"HCT116, 125 ng, replicate 1",2.434
same,2^-(deltaCq) DR5 total,"HCT116, 125 ng, replicate 1",0.02013
same,2^-(deltaCq) BiP,"HCT116, 125 ng, replicate 2",0.04591
same,2^-(deltaCq) CHOP,"HCT116, 125 ng, replicate 2",1.834
same,2^-(deltaCq) DR5 total,"HCT116, 125 ng, replicate 2",0.01955
same,2^-(deltaCq) BiP,"HCT116, 125 ng, replicate 3",0.03739
same,2^-(deltaCq) CHOP,"HCT116, 125 ng, replicate 3",2.7208
same,2^-(deltaCq) DR5 total,"HCT116, 125 ng, replicate 3",0.01725
same,"avg. fold induction relative to empty traffo, BiP","HCT116, 250 ng",0.5014 fold
same,"avg. fold induction relative to empty traffo, CHOP","HCT116, 250 ng",408.627 fold
same,"avg. fold induction relative to empty traffo, DR5 total","HCT116, 250 ng",0.9069 fold
same,"fold induction relative to empty traffo, BiP","HCT116, 250 ng, replicate 1",0.6408 fold
same,"fold induction relative to empty traffo, CHOP","HCT116, 250 ng, replicate 1",391.947 fold
same,"fold induction relative to empty traffo, DR5 total","HCT116, 250 ng, replicate 1",0.8794 fold
same,"fold induction relative to empty traffo, BiP","HCT116, 250 ng, replicate 2",0.4446 fold
same,"fold induction relative to empty traffo, CHOP","HCT116, 250 ng, replicate 2",418.188 fold
same,"fold induction relative to empty traffo, DR5 total","HCT116, 250 ng, replicate 2",0.9861 fold
same,"fold induction relative to empty traffo, BiP","HCT116, 250 ng, replicate 3",0.4188 fold
same,"fold induction relative to empty traffo, CHOP","HCT116, 250 ng, replicate 3",415.746 fold
same,"fold induction relative to empty traffo, DR5 total","HCT116, 250 ng, replicate 3",0.8551 fold
same,2^-(deltaCq) BiP,"HCT116, 250 ng, replicate 1",0.05578
same,2^-(deltaCq) CHOP,"HCT116, 250 ng, replicate 1",4.1369
same,2^-(deltaCq) DR5 total,"HCT116, 250 ng, replicate 1",0.01426
same,2^-(deltaCq) BiP,"HCT116, 250 ng, replicate 2",0.0387
same,2^-(deltaCq) CHOP,"HCT116, 250 ng, replicate 2",4.414
same,2^-(deltaCq) DR5 total,"HCT116, 250 ng, replicate 2",0.01599
same,2^-(deltaCq) BiP,"HCT116, 250 ng, replicate 3",0.03645
same,2^-(deltaCq) CHOP,"HCT116, 250 ng, replicate 3",4.3881
same,2^-(deltaCq) DR5 total,"HCT116, 250 ng, replicate 3",0.01387
same,"avg. fold induction relative to empty traffo, BiP","HCT116, 500 ng",0.5375 fold
same,"avg. fold induction relative to empty traffo, CHOP","HCT116, 500 ng",1484.73 fold
same,"avg. fold induction relative to empty traffo, DR5 total","HCT116, 500 ng",1.792 fold
same,"fold induction relative to empty traffo, BiP","HCT116, 500 ng, replicate 1",0.5213 fold
same,"fold induction relative to empty traffo, CHOP","HCT116, 500 ng, replicate 1",1691.32 fold
same,"fold induction relative to empty traffo, DR5 total","HCT116, 500 ng, replicate 1",1.92 fold
same,"fold induction relative to empty traffo, BiP","HCT116, 500 ng, replicate 2",0.6638 fold
same,"fold induction relative to empty traffo, CHOP","HCT116, 500 ng, replicate 2",1384.67 fold
same,"fold induction relative to empty traffo, DR5 total","HCT116, 500 ng, replicate 2",1.724 fold
same,"fold induction relative to empty traffo, BiP","HCT116, 500 ng, replicate 3",0.4274 fold
same,"fold induction relative to empty traffo, CHOP","HCT116, 500 ng, replicate 3",1378.19 fold
same,"fold induction relative to empty traffo, DR5 total","HCT116, 500 ng, replicate 3",1.731 fold
same,2^-(deltaCq) BiP,"HCT116, 500 ng, replicate 1",0.04537
same,2^-(deltaCq) CHOP,"HCT116, 500 ng, replicate 1",17.8515
same,2^-(deltaCq) DR5 total,"HCT116, 500 ng, replicate 1",0.03114
same,2^-(deltaCq) BiP,"HCT116, 500 ng, replicate 2",0.05778
same,2^-(deltaCq) CHOP,"HCT116, 500 ng, replicate 2",14.6148
same,2^-(deltaCq) DR5 total,"HCT116, 500 ng, replicate 2",0.02796
same,2^-(deltaCq) BiP,"HCT116, 500 ng, replicate 3",0.0372
same,2^-(deltaCq) CHOP,"HCT116, 500 ng, replicate 3",14.5464
same,2^-(deltaCq) DR5 total,"HCT116, 500 ng, replicate 3",0.02807
same,"CHOP (qPCR CHOP, Sheet1)",[1],16.3851
same,"DR5 (qPCR CHOP, Sheet1)",[1],0.9029
same,"GADD34 (qPCR CHOP, Sheet1)",[1],0.958
